These results are taken from patent publication US20240043552A1 (Eli Lilly, published 2024).

What all share (experiment): sandwich ELISA with mis-matched antigens
(An ELISA detects its analyte on a solid surface through an enzyme-linked reagent.)

For one assay, the target named is T1, hHER-2-Fc (human, UniProt P04626 23-652).
T1 construct: Bought (R&D systems); Coated on the plate; not shown: Fc of the bought fusion protein
As for the experimental part: (§1) The dual-binding activity of the same synthesized IgG BsAbs is assessed using a sandwich ELISA. […] Sandwich ELISAs are developed for detecting the four different BsAb test articles; one for detecting anti-HER-2/anti-EGFR BsAb activity, one for detecting anti-HER-2/anti-LTPR BsAb activity, one for detecting anti-cMET/anti-EGFR BsAb activity and one for detecting anti-cMET/anti-LTPR BsAb activity. For all ELISAs, clear 96-well round bottom high binding Immulon microtiter plates (Greiner bio-one, cat #650061) are coated overnight at 2-8° C. with 50 μL/well 1 μg/mL hHER-2-Fc or 1 μg/mL hHGFR(cMet)-Fc (both from R&D systems) in a 50 mM Na2CO3 pH 8.3 buffer. The plates are washed 4 times with PBST and blocked with 200 μL/well casein buffer (Pierce) for 1 hr at room temperature. The plates are then washed 4 times with PBST and the parental IgG controls or BsAb IgG test articles are added at 50 μL/well and […] and serially diluted 1:3 down the plate. The controls and test articles are incubated on the plate for 1 hr at room temperature. The plates are then washed 4 times with PBST and 50 μL/well 1 μg/mL hEGFR-Fc-biotin or hLTβR-Fc-biotin (both from R&D systems) is added for 1 hr at room temperature. The plates are then washed 4 times with PBST followed by the addition of a 50 μL/well streptavidin-AP (Jackson Immunoresearch Labs Cat. #016-050-084) diluted 1:1000 in casein buffer. The streptavidin-AP is incubated in each well for 1 hr at room temperature. The plates are then washed 4 times with PBST and 100 μL/well 1-step PNPP substrate is added (Thermo Scientific Cat. #37621). After approximately 5-15 minutes, plates are read for Absorbance (405 nm) using a SPECTRAMAX® UV plate reader (Molecular Devices). Biotin-labeling of the hEGFR-Fc and hLTβR-Fc proteins is performed using EZ-LINK™ Sulfo-NHS-LC-Biotin (Thermo Scientific Cat. #21327) according to the manufacturer's protocol.

In a further assay the target is T2, hEGFR-Fc-biotin (human, UniProt P00533 25-645, biotin-labelled with EZ-LINK Sulfo-NHS-LC-Biotin).
T2 construct: Bought (R&D systems); Detection antigen of the sandwich; not shown: Fc of the bought fusion protein
The method, then: as §1

Another assay deals with T3, hHGFR(cMet)-Fc (human, UniProt P08581 25-932).
T3 construct: Bought (R&D systems); Coated on the plate; not shown: Fc of the bought fusion protein
As for the experimental part: as §1

Residue numbers refer to the chain shown, from its start. Names and notes keep the numbering of the source.

T3 sequence (P08581 25-932): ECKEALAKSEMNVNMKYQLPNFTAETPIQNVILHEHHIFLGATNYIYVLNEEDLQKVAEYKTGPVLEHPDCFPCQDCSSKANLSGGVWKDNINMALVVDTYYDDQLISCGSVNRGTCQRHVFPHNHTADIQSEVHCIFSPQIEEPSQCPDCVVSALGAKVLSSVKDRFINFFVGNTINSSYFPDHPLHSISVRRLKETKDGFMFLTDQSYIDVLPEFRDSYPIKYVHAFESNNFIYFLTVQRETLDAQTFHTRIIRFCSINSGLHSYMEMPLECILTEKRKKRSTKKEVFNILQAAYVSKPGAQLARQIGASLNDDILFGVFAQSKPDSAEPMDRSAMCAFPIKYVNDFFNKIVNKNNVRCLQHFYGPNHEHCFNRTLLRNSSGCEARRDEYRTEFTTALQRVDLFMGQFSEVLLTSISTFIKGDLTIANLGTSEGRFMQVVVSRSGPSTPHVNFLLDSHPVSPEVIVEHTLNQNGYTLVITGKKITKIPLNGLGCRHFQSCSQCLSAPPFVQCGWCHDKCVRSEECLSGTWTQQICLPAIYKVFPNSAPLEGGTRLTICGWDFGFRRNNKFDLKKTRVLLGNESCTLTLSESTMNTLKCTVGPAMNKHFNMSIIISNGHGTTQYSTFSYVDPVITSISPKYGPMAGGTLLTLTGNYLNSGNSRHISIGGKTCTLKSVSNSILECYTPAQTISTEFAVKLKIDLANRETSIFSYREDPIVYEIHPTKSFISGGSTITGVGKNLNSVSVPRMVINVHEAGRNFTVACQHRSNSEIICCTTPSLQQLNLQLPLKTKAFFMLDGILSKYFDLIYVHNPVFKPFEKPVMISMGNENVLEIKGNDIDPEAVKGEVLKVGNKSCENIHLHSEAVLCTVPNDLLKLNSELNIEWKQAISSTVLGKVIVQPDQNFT

B1: MetMAb × BHA10 IgG BsAb, CH1/Cκ design 14.3.1.2 (bispecific antibody)
heavy 1: EVQLVESGGGLVQPGGSLRLSCAASGYTFTSYWLHWVRKAPGKGLEWVGMIDPSNSDTRFNPEFKDRFTISADTSKNTAYLQMNSLRAEDTAVYYCATYRSYVTPLDYWGQGTLVTVSSASTKGPSVFPLAPSSKSTSGGTAALGCLVADYFPEPVTVSWNSGALTSGVHTFPAVLQSSGLYSLGSVVTVPSSSLGTQTYICNVNHKPSNTKVDKKVEPKSCDKTHTCPPCPAPELLGGPSVFLFPPKPKDTLMISRTPEVTCVVVDVSHEDPEVKFNWYVDGVEVHNAKTKPREEQYQSTYRVVSVLTVLHQDWLNGKEYKCKVSNKALPAPIEKTISKAKGQPREPQVYTLPPSREEMTDNQVSLTCLVKGFYPSDIAVEWESNGQPENNYKTTPPVLMSDGSFFLASKLTVDKSRWQQGNVFSCSVMHEALHNHYTQKSLSLSPG
light 1: RIQMTQSPSSLSASVGDRVTITCKSSQSLLYTSSQKNYLAWYQDKPGKAPKLLIYWASTRESGVPSRFSGSGSGTDFTLTISSLQPEDFATYYCQQYYAYPWTFGQGTKVEIKRTVAAPSVFIFPPSDEQLKSGTARVVCLLNNFYPREAKVQWKVDNALQSGNSQESVTEQDSKDSTYSLISTLTLSKADYEKHKVYACEVTHQGLSSPVTKSFNRGEC
heavy 2: QVQLVQSGAEVKKPGSSVKVSCKASGYTFTTYYLHWVRYAPGQGLEWMGWIYPGNVHAQYNEKFKGRVTITADKSTSTAYMELSSLRSEDTAVYYCARSWEGFPYWGRGTTVTVSSASTKGPSVFPLAPSSKSTSGGTAALGCLVKDYFPEPVTVSWNSGALTSGVHTFPAVLQSSGLYSLSSVVTVPSSSLGTQTYICNVNHKPSNTKVDEKVEPKSCDKTHTCPPCPAPELLGGPSVFLFPPKPKDTLMISRTPEVTCVVVDVSHEDPEVKFNWYVDGVEVHNAKTKPREEQYQSTYRVVSVLTVLHQDWLNGKEYKCKVSNKALPAPIEKTISKAKGQPRRPRVYTLPPSREEMTKNQVSLVCLVKGFYPSDIAVEWESNGQPENNYKTTPPVLDSDGSFFLYSVLTVDKSRWQQGNVFSCSVMHEALHNHYTQKSLSLSPG
light 2: DIQMTQSPSSLSASVGDRVTITCKASQNVGINVAWYQRKPGDAPKSLISSASYRYSGVPSRFSGSGSGTDFTLTISSLQPEDFATYFCQQYDTYPFTFGQGTKVEIKRTVAAPSVFIFPPSDKQLKSGTASVVCLLNNFYPREAKVQWKVDNALQSGNSQESVTEQDSKDSTYSLSSTLTLSKADYEKHKVYACEVTHQGLSSPVTKSFNRGEC
notes: Human IgG1; also called MetMAb × BHA10 14.3.1.2
For the molecule B1, the binding result in the assay with hHER-2-Fc and with hEGFR-Fc-biotin was “no binding” throughout.

B2: Pertuzumab × BHA10 IgG BsAb, CH1/Cκ Wild-Type (AB / H4DR variable domain designs, 7.8.60 CH3, N297Q) (bispecific antibody)
heavy 1: EVQLVESGGGLVQPGGSLRLSCAASGFTFTDYTMDWVRKAPGKGLEWVADVNPNSGGSIYNQEFKGRFTLSVDRSKNTLYLQMNSLRAEDTAVYYCARNLGPSFYFDYWGQGTLVTVSSASTKGPSVFPLAPSSKSTSGGTAALGCLVKDYFPEPVTVSWNSGALTSGVHTFPAVLQSSGLYSLSSVVTVPSSSLGTQTYICNVNHKPSNTKVDKKVEPKSCDKTHTCPPCPAPELLGGPSVFLFPPKPKDTLMISRTPEVTCVVVDVSHEDPEVKFNWYVDGVEVHNAKTKPREEQYQSTYRVVSVLTVLHQDWLNGKEYKCKVSNKALPAPIEKTISKAKGQPREPQVYTLPPSREEMTDNQVSLTCLVKGFYPSDIAVEWESNGQPENNYKTTPPVLMSDGSFFLASKLTVDKSRWQQGNVFSCSVMHEALHNHYTQKSLSLSPG
light 1: RIQMTQSPSSLSASVGDRVTITCKASQDVSIGVAWYQDKPGKAPKLLIYSASYRYTGVPSRFSGSGSGTDFTLTISSLQPEDFATYYCQQYYIYPYTFGQGTKVEIKRTVAAPSVFIFPPSDEQLKSGTASVVCLLNNFYPREAKVQWKVDNALQSGNSQESVTEQDSKDSTYSLSSTLTLSKADYEKHKVYACEVTHQGLSSPVTKSFNRGEC
heavy 2: B1 heavy 2 with E212K
light 2: B1 light 2 with K123E
notes: Human IgG1; also called Pertuzumab × BHA10 Wild-Type
With B2, the binding result with hHGFR(cMet)-Fc and with hEGFR-Fc-biotin was “no binding” throughout.

B3: Pertuzumab × BHA10 IgG BsAb, CH1/Cκ design 14.1.2 (bispecific antibody)
heavy 1: B2 heavy 1 with K149A, K215E
light 1: B2 light 1 with E123K, S131R
heavy 2: B1 heavy 2 with E212K
light 2: B1 light 2 with K123E
notes: Human IgG1; also called Pertuzumab × BHA10 14.1.2
Turning to B3, the binding result with hHGFR(cMet)-Fc and with hEGFR-Fc-biotin was “no binding” throughout.
